These results are taken from patent US12194076B2, “Methods and compositions for treating myelofibrosis” (Acceleron Pharma Inc., priority 2016, dated 2025).

Changes are numbered by the printed parent chain. Numbers in names are those of the source.

For data set [1], the system named is myelofibrosis patients with splenomegaly. The conditions noted are these: cited from earlier work.
In data set [2] the test system is C57BL/6 mice. As to the kind of experiment: GDF trap in ruxolitinib treated animals, hematological parameters. In kind it is in vivo. To be noted: 60 mg/kg twice daily, four weeks. An excerpt:
Ruxolitinib is a Janus kinase inhibitor that has been approved for the treatment of intermediate or high-risk myelofibrosis. […] However, a variety of hematological side effects have been observed in patients treated with ruxolitinib including, for example, anemia. Nine month old C57BL/6 mice were used to understand the effects of ActRIIB(L79D 25-131)-Fc treatment on various hematological parameters in ruxolitinib treated mice.
For this study, treatment was initiated at 6-7 months of age. Mice were placed into one of four groups: i) treatment with ActRIIB(L79D 25-131)-Fc on a dosing schedule of 10 mg/kg twice weekly; ii) treatment with ruxolitinib on a dosing schedule of 60 mg/kg twice daily; iii) treatment with ActRIIB(L79D 25-131)-Fc on a dosing schedule of 10 mg/kg twice weekly and ruxolitinib on a dosing schedule of 60 mg/kg twice daily; and iv) treatment with vehicle (TBS) twice weekly (i.e., control animals).

The target in data set [3] is T1, Activin A (Homo sapiens, UniProt P08476).
T1 sequence (P08476 311-426): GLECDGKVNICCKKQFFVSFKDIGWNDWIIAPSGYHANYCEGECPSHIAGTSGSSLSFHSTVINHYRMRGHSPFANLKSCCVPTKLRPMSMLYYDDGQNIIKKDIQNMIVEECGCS
As to the kind of experiment: Biacore steady-state affinity of ActRIIB-hFc proteins for activin A. To be noted: compared to counterparts lacking the L79D substitution. In kind it is binding. As for the experimental part:
(§1) Affinities of several ligands for ActRIIB(25-131)-hFc and its full-length counterpart ActRIIB(20-134)-hFc were evaluated in vitro with a Biacore™ instrument, and the results are summarized in the table below. Kd values were obtained by steady-state affinity fit due to very rapid association and dissociation of the complex, which prevented accurate determination of kon and koff. ActRIIB(25-131)-hFc bound activin A, activin B, and GDF11 with high affinity.
(§2) The affinity of GDF traps and other ActRIIB-hFc proteins for several ligands was evaluated in vitro with a Biacore™ instrument. Kd values were obtained by steady-state affinity fit due to the very rapid association and dissociation of the complex, which prevented accurate determination of kon and koff.
Background: Surface plasmon resonance follows binding to a sensor surface in real time, without labels.

Data set [4] addresses T2, GDF11 (Homo sapiens, UniProt O95390).
T2 sequence (O95390 299-407): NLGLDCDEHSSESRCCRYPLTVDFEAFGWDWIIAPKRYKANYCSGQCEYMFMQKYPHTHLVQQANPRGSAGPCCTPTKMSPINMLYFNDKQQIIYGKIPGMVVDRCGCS
The data set is described as follows: Biacore steady-state affinity of ActRIIB-hFc proteins for GDF11. In kind it is binding. To be noted: compared to counterparts lacking the L79D substitution. The method, then:
as §1, §2

The target in data set [5] is T3, Activin B (Homo sapiens, UniProt P09529).
T3 sequence (P09529 293-407): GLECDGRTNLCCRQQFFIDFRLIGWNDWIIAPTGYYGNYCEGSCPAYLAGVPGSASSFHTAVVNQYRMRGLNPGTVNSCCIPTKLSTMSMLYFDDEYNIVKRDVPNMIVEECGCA
The data set is described as follows: Biacore steady-state affinity of ActRIIB-hFc proteins for activin B. The class given is binding. The conditions noted are these: compared to counterparts lacking the L79D substitution. As for the experimental part: as §1, §2

The target of data set [6] is T4, GDF8 (Homo sapiens, UniProt O14793).
T4 sequence (O14793 267-375): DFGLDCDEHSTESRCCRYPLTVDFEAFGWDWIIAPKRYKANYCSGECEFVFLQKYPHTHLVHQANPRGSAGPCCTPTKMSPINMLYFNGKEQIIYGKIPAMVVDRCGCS
As to the kind of experiment: Biacore assay, receptor captured with anti-hFc antibody, GDF8 injected. In kind it is binding. To be noted: for Koff (1/s), GDF8: receptor captured via anti-hFc antibody; for myostatin binding, in words: cell-free Biacore assay. The method, then: (§3) Binding of certain ActRIIB-Fc proteins and GDF traps to ligands was tested in a Biacore™ assay.
(§4) The ActRIIB-Fc variants or wild-type protein were captured onto the system using an anti-hFc antibody. Ligands were injected and flowed over the captured receptor proteins.

Data set [7] concerns the target T1, Activin A. The data set is described as follows: Biacore assay, receptor captured with anti-hFc antibody, activin A injected. The class given is binding. To be noted: for Koff (1/s), Activin A / Kon (1/Ms), Activin A / KD (M), Activin A: receptor captured via anti-hFc antibody; for binding to activin A, in words: cell-free Biacore assay. The method, then: as §3, §4

The target of data set [8] is T2, GDF11. As to the kind of experiment: A-204 reporter gene assay, inhibition of GDF-11 signaling. In kind it is cell-based. Also noted: host or cells: added to A-204 cells (human rhabdomyosarcoma). The source says:
(§5) An A-204 reporter gene assay was used to evaluate the effects of ActRIIB-Fc proteins and GDF traps on signaling by GDF-11 and activin A. Cell line: human rhabdomyosarcoma (derived from muscle). Reporter vector: pGL3(CAGA)12 (described in Dennler et al, 1998, EMBO 17: 3091-3100). The CAGA12 motif is present in TGF-beta responsive genes (e.g., PAI-1 gene), so this vector is of general use for factors signaling through SMAD2 and 3.
(§6) Day 1: Split A-204 cells into 48-well plate.
(§7) Day 2: A-204 cells transfected with 10 ug pGL3(CAGA)12 or pGL3(CAGA)12(10 ug)+pRLCMV (1 μg) and Fugene.
(§8) Day 3: Add factors (diluted into medium+0.1% BSA). Inhibitors need to be preincubated with factors for 1 hr before adding to cells. Six hrs later, cells were rinsed with PBS and lysed.
(§9) This is followed by a luciferase assay.
(§10) Activity of ActRIIB-Fc proteins and GDF traps was tested in a cell-based assay as described above. Some variants were tested in different C-terminal truncation constructs. As discussed above, truncations of five or fifteen amino acids caused reduction in activity.

Data set [9] deals with T2, GDF11. As to the kind of experiment: Biacore assay, receptor captured with anti-hFc antibody, GDF11 injected. The class given is binding. The conditions noted are these: for GDF11 binding, in words: cell-free Biacore assay; for Koff (1/s), GDF11: receptor captured via anti-hFc antibody. The method, then:
as §3, §4

The target of data set [10] is T1, Activin A. As to the kind of experiment: A-204 reporter gene assay, inhibition of activin A signaling. The class given is cell-based. More on the design: host or cells: added to A-204 cells (human rhabdomyosarcoma).
From the text: as §5, §6, §7, §8, §9, §10
(In general: In a reporter assay the amount or activity of a reporter protein is the signal.)

On to `NC(=O)NO` [HC, Hydroxycarbamide], for which the “patients with reductions in spleen size from 25%-50%” value in data set [1] (Martinez-Trillos et al. (2010)) is “up to 35%”.
With `N#CC[C@H](C1CCCC1)n1cc(-c2ncnc3[nH]ccc23)cn1` [ruxolitinib], in data set [2], the “decrease of hemoglobin levels compared to control animals” value is reported as roughly 4% and the “decrease of red blood cell levels compared to control animals” value is on record as roughly 4%.
For the molecule `Nc1cccc2c1CN(C1CCC(=O)NC1=O)C2=O` (stereo not drawn) [lenalidomide], the spleen response rate in [1] is on record as 33%.
As for `Nc1nc(Cl)nc2c1ncn2[C@H]1C[C@H](O)[C@@H](CO)O1` [cladribine], the spleen response rate entry in data set [1] is on record as “up to 50%”.
As to `O=C1CCC(N2C(=O)c3ccccc3C2=O)C(=O)N1` (stereo not drawn) [thalidomide], in data set [1], the spleen response rate is less than 20%.
With “ActRIIB(25-131)-hFc: human ActRIIB extracellular domain residues 25-131 fused to human Fc via three glycine residues, mature SEQ ID NO: 28”, in data set [3], the “activin A binding, in words” value is given as “high affinity”. Also, the “GDF11 binding, in words” value in [4] was “high affinity”. Moreover, the “activin B binding, in words” value in [5] was “high affinity”.

B1: ActRIIB(R64K 20-129)-hFc: ActRIIB-hFc variant, residues 20-129, R64K substitution (protein)
chain: GRGEAETRECIYYNANWELERTNQSGLERCEGEQDKRLHCYASWKNSSGTIELVKKGCWLDDFNCYDRQECVATEENPQVYFCCCEGNFCNERFTHLPEAGGPEVTYEPPGGGTHTCPPCPAPELLGGPSVFLFPPKPKDTLMISRTPEVTCVVVDVSHEDPEVKFNWYVDGVEVHNAKTKPREEQYNSTYRVVSVLTVLHQDWLNGKEYKCKVSNKALPVPIEKTISKAKGQPREPQVYTLPPSREEMTKNQVSLTCLVKGFYPSDIAVEWESNGQPENNYKTTPPVLDSDGSFFLYSKLTVDKSRWQQGNVFSCSVMHEALHNHYTQKSLSLSPGK
B1: the “Koff (1/s), GDF8” value in [6] amounted to 0.000209 s⁻¹. Also, in data set [7], the “Koff (1/s), Activin A” value was determined as 0.000628 s⁻¹ and the “Kon (1/Ms), Activin A” value amounted to 7.46e+06 M⁻¹ s⁻¹.

B2: ActRIIB(L79D 20-134)-hFc: GDF trap: ActRIIB amino acids 20-134 with L79D substitution fused to human Fc, SEQ ID NO: 29 (protein)
chain: GRGEAETRECIYYNANWELERTNQSGLERCEGEQDKRLHCYASWRNSSGTIELVKKGCWDDDFNCYDRQECVATEENPQVYFCCCEGNFCNERFTHLPEAGGPEVTYEPPPTAPTGGGTHTCPPCPAPELLGGPSVFLFPPKPKDTLMISRTPEVTCVVVDVSHEDPEVKFNWYVDGVEVHNAKTKPREEQYNSTYRVVSVLTVLHQDWLNGKEYKCKVSNKALPVPIEKTISKAKGQPREPQVYTLPPSREEMTKNQVSLTCLVKGFYPSDIAVEWESNGQPENNYKTTPPVLDSDGSFFLYSKLTVDKSRWQQGNVFSCSVMHEALHNHYTQKSLSLSPGK
Take B2: the “inhibition of GDF-11 activity, in words” value in [8] is “almost wild-type”. Moreover, in data set [6], the “myostatin binding, in words” value was “retains” and the “Koff (1/s), GDF8” value was determined as 0.00083 s⁻¹. For the same molecule, in data set [9], the “GDF11 binding, in words” value is “retains” and the “Koff (1/s), GDF11” value worked out at 0.000439 s⁻¹. For the same molecule, in [7], the “binding to activin A, in words” value is on record as “markedly decreased (non-quantifiable)” and the “KD (M), Activin A” value is “Low binding”. The “inhibition of activin A activity, in words” value in data set [10] is “substantial loss”.

B3: ActRIIB(A24N 20-134)-hFc: ActRIIB(20-134)-hFc variant with A24N substitution (protein)
chain: B2 chain with A5N, D60L
B3: the “Koff (1/s), GDF11” value in data set [9] was 6.35e-05 s⁻¹. Also, in [7], the “Koff (1/s), Activin A” value came to 0.000346 s⁻¹ and the “Kon (1/Ms), Activin A” value is 3.34e+06 M⁻¹ s⁻¹.

B4: ActRIIB(R64K 20-134)-hFc: ActRIIB(20-134)-hFc variant with R64K substitution (protein)
chain: B2 chain with R45K, D60L
Consider B4, for which, in data set [6], the “Koff (1/s), GDF8” value was 4.71e-05 s⁻¹. Further, the “Koff (1/s), GDF11” value in [9] is 2.41e-05 s⁻¹. For the same molecule, in data set [7], the “Koff (1/s), Activin A” value is 0.000325 s⁻¹ and the “Kon (1/Ms), Activin A” value is 6.82e+06 M⁻¹ s⁻¹.

B5: ActRIIB(L79E 20-134)-hFc: GDF trap form with a glutamate rather than an aspartate at position 79, human Fc fusion (protein)
chain: B2 chain with D60E
With B5, the “inhibition of GDF-11 activity, in words” value in data set [8] is “almost wild-type”. Also, in [6], the “myostatin binding, in words” value was “retains” and the “Koff (1/s), GDF8” value worked out at 0.0009 s⁻¹. For the same molecule, in [9], the “GDF11 binding, in words” value is reported as “retains” and the “Koff (1/s), GDF11” value came to 0.000274 s⁻¹. Moreover, in [7], the “binding to activin A, in words” value was “markedly decreased (non-quantifiable)” and the “KD (M), Activin A” value is reported as “Low binding”. For the same molecule, the “inhibition of activin A activity, in words” value in data set [10] is reported as “substantial loss”.

B6: ActRIIB(K74A 20-134)-hFc: ActRIIB(20-134)-hFc variant with K74A substitution (protein)
chain: B2 chain with K55A, D60L
Turning to B6, the “Koff (1/s), GDF8” value in data set [6] was 2.03e-05 s⁻¹.

B7: ActRIIB(P129S, P130R 20-134)-hFc: ActRIIB(20-134)-hFc variant with P129S and P130R substitutions (protein)
chain: B2 chain with D60L, P110S, P111R
As to B7, the “Koff (1/s), GDF8” value in data set [6] was determined as 0.00018 s⁻¹. For the same molecule, in data set [7], the “Koff (1/s), Activin A” value amounted to 0.000417 s⁻¹ and the “Kon (1/Ms), Activin A” value was 5.02e+06 M⁻¹ s⁻¹.
